Assay results reported in PMC2858024, “Identification and molecular characterization of a novel flavin-free NADPH preferred azoreductase encoded by azoB in Pigmentiphaga kullae K24” (BMC Biochemistry, 2010).

Tests used:
Test in all cases: purified protein
purified protein [1] = substrate: O=S(=O)(O)c1ccc(N=Nc2ccc(O)c3ccccc23)cc1; settings: apparent, co-substrate NADPH 1 mM, potassium phosphate pH 6.8, room temperature (general assay)
purified protein [2] = substrate: NC(=O)C1=CN([C@@H]2O[C@H](COP(=O)(O)OP(=O)(O)OC[C@H]3O[C@@H](n4cnc5c(N)ncnc54)[C@H](O)[C@@H]3O)[C@@H](O)[C@H]2O)C=CC1; settings: apparent, Orange I 30 μM, potassium phosphate pH 6.8, room temperature (general assay)
purified protein [3] = substrate: NC(=O)C1=CN([C@@H]2O[C@H](COP(=O)(O)OP(=O)(O)OC[C@H]3O[C@@H](n4cnc5c(N)ncnc54)[C@H](OP(=O)(O)O)[C@@H]3O)[C@@H](O)[C@H]2O)C=CC1; settings: apparent, Orange I 30 μM, potassium phosphate pH 6.8, room temperature (general assay)

B1: AzoB (Pigmentiphaga kullae) (protein)
chain: MNIAIIGATGNVGSRLVNEALARGHHVTAIARHASRLAARPGLDTLDIDLADGAKLAGALRGKDAAISSVRFATSPLAAVLGPVRQAGLRRLLVVGGAGSLEVAPGAALVDTPTFPAEYKPEALAGRDWLNALRTEKDLDWTFLSPSALFVPGERTGTFRLGGDTLLTAADGRSWISMEDFAIAMLDEVEKPAHTGRRFTVGY
Purified protein [1]
  Km: 3.0 µM
  Vmax: 36 µmol/min/mg
Purified protein [2]
  Km: 170 µM
  Vmax: 17 µmol/min/mg
Purified protein [3]
  Km: 1.0 µM
  Vmax: 33 µmol/min/mg
